Measurements reported in patent publication US20240400720A1 (NOVIMMUNE S A, published 2024).

T1: human CD19 (human, UniProt P15391 20-291, limits assumed)
T1 construct: also called hCD19
T1 sequence (looked up): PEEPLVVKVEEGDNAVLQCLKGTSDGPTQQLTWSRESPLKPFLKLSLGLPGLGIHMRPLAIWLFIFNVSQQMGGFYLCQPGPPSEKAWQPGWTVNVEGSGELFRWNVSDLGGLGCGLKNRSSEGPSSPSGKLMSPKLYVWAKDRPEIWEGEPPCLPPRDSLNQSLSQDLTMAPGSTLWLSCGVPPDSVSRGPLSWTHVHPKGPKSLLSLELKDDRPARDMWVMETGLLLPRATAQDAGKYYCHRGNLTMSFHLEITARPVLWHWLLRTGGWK

T2: human CD19 on Raji cells (human, UniProt P15391 20-556)
T2 construct: whole, on cells; also called native form of hCD19
T2 sequence (looked up): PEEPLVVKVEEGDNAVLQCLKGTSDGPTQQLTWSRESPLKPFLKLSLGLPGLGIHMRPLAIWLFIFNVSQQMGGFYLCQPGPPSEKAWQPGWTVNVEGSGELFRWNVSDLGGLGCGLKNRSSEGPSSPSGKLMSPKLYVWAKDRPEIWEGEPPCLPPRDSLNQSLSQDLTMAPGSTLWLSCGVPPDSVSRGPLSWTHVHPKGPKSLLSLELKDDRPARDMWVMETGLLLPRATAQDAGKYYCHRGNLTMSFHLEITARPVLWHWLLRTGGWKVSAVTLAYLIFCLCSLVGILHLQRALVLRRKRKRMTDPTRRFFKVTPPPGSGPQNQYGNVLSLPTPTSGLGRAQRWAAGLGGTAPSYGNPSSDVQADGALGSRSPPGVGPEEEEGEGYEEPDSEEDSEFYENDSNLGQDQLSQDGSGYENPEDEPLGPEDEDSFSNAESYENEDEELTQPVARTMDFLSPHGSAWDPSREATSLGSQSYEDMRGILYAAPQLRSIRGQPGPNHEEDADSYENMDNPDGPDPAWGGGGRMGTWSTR


Legend:
human CD47 [1] = target: T3, human CD47 (human, UniProt Q08722 19-141, limits assumed); assay: screening of Examples 3 to 6
T3 construct: also called hCD47

[2] = target: T4, human CD47 on the cell surface (human, UniProt Q08722 19-323); assay: CD47-SIRPα competitive binding assay: His-tagged soluble human SIRPα (200 ng/ml) on hCD47-transfected CHO cells, antibody 3.3 pM-330 nM; blocked ligand SIRPα
T4 construct: whole, on cells; also called huCD47; native CD47

human CD47 [3] = target: T3, human CD47; assay: affinity maturation by phage display on hCD47; positive in hCD47-SIRPα inhibition screen, reformatted as IgG
human CD19 = target: T1, human CD19; assay: second round of affinity maturation (from D11)
[4] = target: T4, human CD47 on the cell surface; assay: FACS on DS-1 cells (CD19-negative, CD47-positive), human IgG1 format, 0.01-10 µg/ml
Method: (§1) The graphs in FIGS. 9A-9C present FACS profiles generated with monovalent and bispecific antibodies binding to CD19-negative B-NHL cells (DS-1) and CD19-positive Burkitt lymphoma cells (Raji). All antibodies were human IgG1 format and were tested at four concentrations as indicated.
(§2) Two types of cells were used, a CD19-positive Burkitt lymphoma cell line Raji (expressing about 65,000 CD47 molecules per cell) and the CD19-negative B-NHL cell line DS-1 (expressing about 150,000 CD47 molecules per cell) as a control.

human CD19 on Raji cells = target: T2, human CD19 on Raji cells; assay: FACS on Raji cells (CD19-positive, CD47-positive), human IgG1 format, 0.01-10 µg/ml; both targets are on the cells, the filing ascribes the binding to co-engagement driven mainly by the CD19 arm
Method: as §1, §2

human CD47 [5] = target: T3, human CD47; assay: surface plasmon resonance
human CD47 [6] = target: T3, human CD47; assay: CD47/SIRPα binding assay, inhibition of SIRPα binding to CD47; format not stated for this figure
[7] = target: T4, human CD47 on the cell surface; assay: flow cytometry, CHO cells stably transfected with human CD47, antibody 10 µg/ml, Cy-5 anti-human Fc; non-transfected CHO cells as control
Method: Non-transfected CHO cells were used as control. In brief, purified CD47 Mabs were incubated with CHO-huCD47 cells at a final concentration of 10 μg/ml for 30 minutes. After two washes, bound CD47 antibodies were detected using a Cy-5 conjugated anti-human Fc secondary antibody (BD biosciences).

Binder | binding result [2] | binding result (human CD47 [3]) | other results
Kc4 antibody (antibody, human IgG1, lambda, V domains shown, IgG, lambda (IGVL2-14)) VH: not shown VL: QSALTQPASVSGSPGQSITISCTGTSSDVGGYNYVSWYQQHPGKAPKLMIYEVSNRPSGVSNRFSGSKSGNTASLTISGLQAEDEADYYCSSYDWWFRPKVFGGGTKLTVLG | binds |  | binding result (human CD47 [1]): binds
Kc4B1 antibody (antibody, human IgG1, lambda, V domains shown, IgG, lambda) VH: not shown VL: QSALTQPASVSGSPGQSITISCTGTSSDVRANNYVSWYQQHPGKAPKLMIYESSARPSGVSNRFSGSKSGNTASLTISGLQAEDEADYYCSSYDWWFRPKVFGGGTKLTVLG | binds | binds | 
Kc4G9 antibody (antibody, human IgG1, lambda, V domains shown, IgG, lambda) VH: not shown VL: QSALTQPASVSGSPGQSITISCTGTSSDVERKNYVSWYQQHPGKAPKLMIYKNSTRPSGVSNRFSGSKSGNTASLTISGLQAEDEADYYCSSYDWWFRPKVFGGGTKLTVLG | binds | binds | 
Kc4C11 antibody (antibody, human IgG1, lambda, V domains shown, IgG, lambda) VH: not shown VL: QSALTQPASVSGSPGQSITISCTGTSSDVRGNNYVSWYQQHPGKAPKLMIYENSKRPSGVSNRFSGSKSGNTASLTISGLQAEDEADYYCSSYDWWFRPKVFGGGTKLTVLG | binds | binds | 
Kc4F4 antibody (antibody, human IgG1, lambda, V domains shown, IgG, lambda) VH: not shown VL: QSALTQPASVSGSPGQSITISCTGTSSDVRRANYVSWYQQHPGKAPKLMIYQDSSRPSGVSNRFSGSKSGNTASLTISGLQAEDEADYYCSSYDWWFRPKVFGGGTKLTVLG | binds | binds | 
Kc4G11 antibody (antibody, human IgG1, lambda, V domains shown, IgG, lambda) VH: not shown VL: QSALTQPASVSGSPGQSITISCTGTSSDVGKANYVSWYQQHPGKAPKLMIYKDSDRPSGVSNRFSGSKSGNTASLTISGLQAEDEADYYCSSYDWWFRPKVFGGGTKLTVLG | binds | binds | 
Kc4E10 antibody (antibody, human IgG1, lambda, V domains shown, IgG, lambda) VH: not shown VL: QSALTQPASVSGSPGQSITISCTGTSSDVNSANYVSWYQQHPGKAPKLMIYKSSSRPSGVSNRFSGSKSGNTASLTISGLQAEDEADYYCSSYDWWFRPKVFGGGTKLTVLG | binds | binds | 
Kc4E2 antibody (antibody, human IgG1, lambda, V domains shown, IgG, lambda; also called KC4-P2E2) VH: not shown VL: QSALTQPASVSGSPGQSITISCTGTSSDVYYNKYVSWYQQHPGKAPKLMIYESSKRPSGVSNRFSGSKSGNTASLTISGLQAEDEADYYCSSYDWWFRPKVFGGGTKLTVLG | binds | binds | 
C9 antibody (antibody, human IgG1, lambda, V domains shown, anti-CD19, IgG, lambda; also called L7B7_C9) VH: not shown VL: NFMLTQPHSVSESPGKTVTISCTRSSGSIADKYVQWYQQRPGSSPTIVIYYDNERPSGVPDRFSGSIDSSSNSASLTISGLKTEDEADYYCQTYDESLYGWVFGGGTKLTVLG |  |  | binding result (human CD19): binds
A6 antibody (antibody, human IgG1, lambda, V domains shown, anti-CD19, IgG, lambda; also called L7B7_A6) VH: not shown VL: NFMLTQPHSVSESPGKTVTISCTRSSGSIGDKYVQWYQQRPGSSPTIVIYYDNERPSGVPDRFSGSIDSSSNSASLTISGLKTEDEADYYCQTYDESLYGWVFGGGTKLTVLG |  |  | binding result (human CD19): binds
B11 antibody (antibody, human IgG1, lambda, V domains shown, anti-CD19, IgG, lambda; also called L7B7_B11) VH: not shown VL: NFMLTQPHSVSESPGKTVTISCTRSSGSIEDKYVQWYQQRPGSSPTIVIYYDNERPSGVPDRFSGSIDSSSNSASLTISGLKTEDEADYYCQTYDNSLYGWVFGGGTKLTVLG |  |  | binding result (human CD19): binds
C6 antibody (antibody, human IgG1, lambda, V domains shown, anti-CD19, IgG, lambda; also called L7B7 C6) VH: not shown VL: NFMLTQPHSVSESPGKTVTISCTRSSGSINDKYVQWYQQRPGSSPTIVIYFDNERPSGVPDRFSGSIDSSSNSASLTISGLKTEDEADYYCQTYDTSLYGWVFGGGTKLTVLG |  |  | binding result (human CD19): binds
5A3M5xC2 (bispecific antibody, human IgG1, kappa, lambda, also called CD47xCD19 BsAb 5A3M5xC2; bispecific antibody 5A3-M5×C2) common heavy chain: not shown kappa light chain (5A3-M5, anti-CD47): not shown lambda light chain (C2, anti-CD19): NFMLTQPHSVSESPGKTVTISCTRSSGSIEDKYVQWYQQRPGSSPTIVIYYDNERPSGVPDRFSGSIDSSSNSASLTISGLKTEDEADYYCQTYDQSLYGWVFGGGTKLTVLGQPKAAPSVTLFPPSSEELQANKATLVCLISDFYPGAVTVAWKADSSPVKAGVETTTPSKQSNNKYAASSYLSLTPEQWKSHRSYSCQVTHEGSTVEKTVAPTECS |  |  | binding result [4]: binds; binding result (human CD19 on Raji cells): binds
Ke8G11xC2 (bispecific antibody, human IgG1, kappa, lambda, also called CD47xCD19 BsAb Ke8G11xC2; bispecific antibody Ke8G11×C2) common heavy chain: not shown kappa light chain (Ke8G11, anti-CD47): DIQMTQSPSSLSASVGDRVTITCRASQSIGRYLNWYQQKPGKAPKLLIYAASSLQSGVPSRFSGSGSGTDFTLTISSLQPEDFATYYCQQMHPRGPKTFGQGTKVEIKRTVAAPSVFIFPPSDEQLKSGTASVVCLLNNFYPREAKVQWKVDNALQSGNSQESVTEQDSKDSTYSLSSTLTLSKADYEKHKVYACEVTHQGLSSPVTKSFNRGEC lambda light chain (C2, anti-CD19): NFMLTQPHSVSESPGKTVTISCTRSSGSIEDKYVQWYQQRPGSSPTIVIYYDNERPSGVPDRFSGSIDSSSNSASLTISGLKTEDEADYYCQTYDQSLYGWVFGGGTKLTVLGQPKAAPSVTLFPPSSEELQANKATLVCLISDFYPGAVTVAWKADSSPVKAGVETTTPSKQSNNKYAASSYLSLTPEQWKSHRSYSCQVTHEGSTVEKTVAPTECS |  |  | binding result (human CD19 on Raji cells): binds
Ka3xC2 (bispecific antibody, human IgG1, kappa, lambda, m75 has the same CD47 arm but no named CD19 arm; also called CD47xCD19 BsAb Ka3xC2; bispecific antibody Ka3×C2) common heavy chain: not shown kappa light chain (Ka3, anti-CD47): not shown lambda light chain (C2, anti-CD19): NFMLTQPHSVSESPGKTVTISCTRSSGSIEDKYVQWYQQRPGSSPTIVIYYDNERPSGVPDRFSGSIDSSSNSASLTISGLKTEDEADYYCQTYDQSLYGWVFGGGTKLTVLGQPKAAPSVTLFPPSSEELQANKATLVCLISDFYPGAVTVAWKADSSPVKAGVETTTPSKQSNNKYAASSYLSLTPEQWKSHRSYSCQVTHEGSTVEKTVAPTECS |  |  | binding result [4]: binds; binding result (human CD19 on Raji cells): binds
5A3 antibody (antibody, human IgG1, kappa, V domains shown, IgG, common heavy chain, kappa light chain) VH: not shown VL: DIQMTQSPSSLSASVGDRVTITCQASQDINKYLNWYQQKPGKAPKLLIYGASRLETGVPSRFSGSGSGTDFTFTISSLQPEDIATYYCQQKHPRGPRTFGQGTKVEIKR |  |  | Kd (human CD47 [5]): ~23.6 nM; IC50 (read off the curve) (human CD47 [6]): ~0.08 nM
Ka3 antibody (antibody, human IgG1, kappa, V domains shown, IgG, kappa (IGVK1-39)) VH: not shown VL: DIQMTQSPSSLSASVGDRVTITCRASQSISSYLNWYQQKPGKAPKLLIYAASSLQSGVPSRFSGSGSGTDFTLTISSLQPEDFATYYCQQMHPRAPKTFGQGTKVEIKR | binds |  | binding result (human CD47 [1]): binds
Ke8A2 antibody (antibody, human IgG1, kappa, V domains shown, IgG; also called KE8-P2A2; KE8A25) VH: not shown VL: DIQMTQSPSSLSASVGDRVTITCRASQSIDRYLNWYQQKPGKAPKLLIYAASSLQSGVPSRFSGSGSGTDFTLTISSLQPEDFATYYCQQKHPRGPRTFGQGTKVEIKR |  | binds | binding result [7]: binds
5A3-M5 antibody (antibody, human IgG1, kappa, V domains shown, IgG, variant of 5A3 with changed VL) VH: not shown VL: DIQMTQSPSSLSASVGDRVTITCQASQDINKYLNWYQQKPGKAPKLLIYGASRLETGVPSRFSGSGSGTDFTFTISSLQPEDIATYYCQQKHPRYPRTFGQGTKVEIKR |  |  | Kd (human CD47 [5]): ~2840 nM; IC50 (read off the curve) (human CD47 [6]): ~3 nM
